The target in the test is MtrC_(DI,II,memb), lipid-anchored truncated MtrC comprised only of domains I and II (Shewanella oneidensis MR-1) (UniProt Q8EG34).

As for “soluble OmcA (from UniProt Q8EG33 1-735) (natural protein)”, the rate of reduction of 700 nM soluble OmcA by whole S. oneidensis ΔmtrC/omcA cells producing MtrC (DI,II)AB, against S. oneidensis MR-1 (fold lower rate) is 4.

For the origin of these results see PMC12304082.
